# Results as given in article PMC11538491.
# Where two headings read alike, the source gives them in different places.
# B1: serpinA3 from human plasma, bound to the B19V capsid (natural protein)
# chain: HPNSPLDEENLTQENQDRGTHVDLGLASANVDFAFSLYKQLVLKAPDKNVIFSPLSISTALAFLSLGAHNTTLTEILKGLKFNLTETSEAEIHQSFQHLLRTLNQSSDELQLSMGNAMFVKEQLSLLDRFTEDAKRLYGSEAFATDFQDSAAAKKLINDYVKNGTRGKITDLIKDLDSQTMMVLVNYIFFKAKWEMPFDPQDTHQSRFYLSKKKWVMVPMMSLHHLTIPYFRDEELSCTVVELKYTGNASALFILPDQDKMEEVEAMLLPETLKRWRDSLEFREIGELYLPKFSISRDYNLNDILLQLGIEEAFTSKADLSGITGARNLAVSQVVHKAVLDVFEEGTEASAATAVKITLLSALVETRTIVRFNRPFLMIIVPTDTQNIFFMSKVTNPKQA
# modifications: five extra densities at the predicted N-glycosylation sites (positions not given)
# Legend:
# [1] = target: parvovirus B19 (B19V) virion purified from infected patient plasma, genotype 1 (human parvovirus B19); assay: cryo-EM structure
# [2] = target: parvovirus B19 (B19V) virion purified from infected patient plasma, genotype 1 (human parvovirus B19); assay: cryo-EM structure; remark: listed apart in the source
Molecule,occupancy of the binding sites [1] [%],stoichiometry N (molecules per capsid) [1],occupancy of the binding sites [2] [%],stoichiometry N (molecules per capsid) [2],stoichiometry N (sites occupied per capsid (of 30)) [2]
"inter-alpha-trypsin inhibitor heavy chain 4 (ITIH4) from human plasma, bound to the B19V capsid (natural protein)",19.4,12,,,
B1,,,38.3,23,22
